Results as given in patent publication US20210113615A1 (LUDWIG INSTITUTE FOR CANCER RESEARCH, published 2021).
Substitutions are numbered along the chain they refer to. Like-named read-outs stand apart in the source and are kept apart here.

Tests used:
[1] = target: T1, Bcl-XL (B-cell lymphoma-extra-large), wildtype sequence as tested (human, UniProt Q07817 1-209); assay: SPR, Biacore 8K; Bcl-xL immobilized, Des3 variant injected in serial dilutions
T1 construct: It is shorter than full-length Bcl-xL: E96 of the wildtype numbering stands at position 56; Bcl-XL was immobilized in SPR; also called Protein B
Description: (§1) Affinity (nM) values were calculated by Surface plasmon resonance (SPR) data on a Biacore 8K device.

[2] = target: T2, Bcl-2 (BCL-2 sequence as tested in Example 5) (Homo sapiens (Human), UniProt P10415 1-207); assay: not stated here (heading in the sequence table); target Bcl-2 (first of the two values, 'respectively')
T2 construct: It was immobilized in SPR

[3] = target: T1, Bcl-XL (B-cell lymphoma-extra-large), …; assay: method not stated for this value (Example 1); Example 1, binder named 1LE4A; approximate value, method not stated
[4] = target: T1, Bcl-XL (B-cell lymphoma-extra-large), …
[5] = target: T1, Bcl-XL (B-cell lymphoma-extra-large), …; assay: SPR, LD3:Bcl-XL binding interaction, sensorgrams with fitted curves
[6] = target: T2, Bcl-2 (BCL-2 sequence as tested in …); assay: SPR, Biacore 8K; Bcl-2 immobilized, Des3 variant injected in serial dilutions
Description: as §1

T2 sequence (P10415 1-207 limits assumed): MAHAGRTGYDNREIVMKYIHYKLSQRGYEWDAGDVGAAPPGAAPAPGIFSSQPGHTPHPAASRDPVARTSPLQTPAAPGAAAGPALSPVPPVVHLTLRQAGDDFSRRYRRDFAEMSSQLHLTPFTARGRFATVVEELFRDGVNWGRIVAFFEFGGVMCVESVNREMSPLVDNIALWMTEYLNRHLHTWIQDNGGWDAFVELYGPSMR
T1 sequence (Q07817 other isoform, or with tags, fused parts or gaps limits assumed): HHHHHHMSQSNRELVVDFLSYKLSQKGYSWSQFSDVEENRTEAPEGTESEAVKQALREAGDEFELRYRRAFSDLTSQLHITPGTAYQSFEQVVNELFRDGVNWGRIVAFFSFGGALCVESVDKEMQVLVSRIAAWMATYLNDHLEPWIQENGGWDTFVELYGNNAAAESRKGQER

B1: LD3 (lead design 3: Bcl-XL binder designed on human apolipoprotein E4, PDB ID 1LE4 chain A) (designed binder)
chain: HHHHHHQRWELALGRFLEYLSWVSTLSEQVQEELLSSQVTQELRALMDETMKELKAYKSELEEQLTPVAEETRARLSKELQAAQARLGADMEDVRGRLVQYRGEVQAMLGQSTEELRVRLASHLIALQLRLIGDAFDLQKRLAVYQAGA
notes: No single sentence states these identities; also called Des3; DES3
Kd [1]: 4 pM | Kd [2]: 800 pM | Kd [3]: ~400 pM | Kd [4]: 4 pM | Kd [5]: ~4 pM | Kd [6]: 800 pM

B2: Des3a (slightly weaker affinity binder, GLU124ALA) (designed binder)
chain: QRWELALGRFLAYLSWVSTLSEQVQEELLSSQVTQELRALMDETMKELKAYKSELEEQLTPVAEETRARLSKELQAAQARLGADMEDVRGRLVQYRGEVQAMLGQSTEELRVRLASHLIALQLRLIGDAFDLQKRLAVYQAGA
Kd [6]: 16800 pM

B3: Des3c (weakest affinity Des3 binder, ASP240ALA) (designed binder)
chain: B2 chain with A12E, D128A
Kd [6]: 147000 pM

B4: Des3b (medium affinity binder, LEU235ALA) (designed binder)
chain: B2 chain with A12E, L123A
Kd [6]: 64100 pM
